Laboratory results from ChEMBL document CHEMBL1138079.

Experiments:
[1] = target: Oxygen-insensitive NAD(P)H nitroreductase NfsB (Escherichia coli) (UniProt P38489); assay: Activity against Escherichia coli nitroreductase
[2] = substrate: NC(=O)c1cc(N2CC2)c([N+](=O)[O-])cc1[N+](=O)[O-]; assay: Activity against Escherichia coli nitroreductase

B1: Oxygen-insensitive NAD(P)H nitroreductase (Escherichia coli K-12), P38489 (protein)
chain: MDIISVALKRHSTKAFDASKKLTPEQAEQIKTLLQYSPSSTNSQPWHFIVASTEEGKARVAKSAAGNYVFNERKMLDASHVVVFCAKTAMDDVWLKLVVDQEDADGRFATPEAKAANDKGRKFFADMHRKDLHDDAEWMAKQVYLNVGNFLLGVAALGLDAVPIEGFDAAILDAEFGLKEKGYTSLVVVPVGHHSVEDFNATLPKSRLPQNITLTEV
What does the source list for B1?
Km [1]: 195 µM; Km [2]: 881 µM
